In general, Kd refers to the constant that tells how readily two partners part at equilibrium. The low end stands for higher affinity, the high end for lower affinity.

The experiment addresses T1, human transferrin receptor (human, UniProt P02786 89-760, limits assumed).
T1 construct: also called TfR Human; transferrin receptor 1
In words: MST (Monolith NT.115), dye-labelled protein, receptor titrated. Here is the method: First, 100 μl of dye that specifically binds to a hexa-His tag (RED-tris-NTA 2nd Generation Dye) was prepared at a concentration of 50 nM, along with 100 μl of the produced protein at a concentration of 200 nM, followed by mixing the same and incubating at room temperature for 30 minutes. The incubated product was centrifuged at 13000 rpm for 10 minutes at 4° C. by a centrifuge, thus to separate the supernatant and obtain a dye-labeled protein.
Then, 25 μl of 9.65 μM transferrin receptor was added to the 1st PCR tube; 10 μl of PBS-T (PBS+0.5% tween 20) buffer was added to 2nd to 16th PCR tubes; 10 μl of transferrin in the 1st PCR tube was transferred to the 2nd PCR tube; and 10 μl was again transferred from the 2nd PCR tube to the 3rd PCR tube. Likewise, this procedure was continued up to the 16th tube thus to perform ½ dilution in a sequential order so that each of the 2nd to 16th PCR tubes becomes 20 μl.
Thereafter, 10 μl of the dye-labeled protein was added to each PCR tube, and the reaction was performed at room temperature for 1 hour.

T1 sequence (P02786 89-760 limits assumed): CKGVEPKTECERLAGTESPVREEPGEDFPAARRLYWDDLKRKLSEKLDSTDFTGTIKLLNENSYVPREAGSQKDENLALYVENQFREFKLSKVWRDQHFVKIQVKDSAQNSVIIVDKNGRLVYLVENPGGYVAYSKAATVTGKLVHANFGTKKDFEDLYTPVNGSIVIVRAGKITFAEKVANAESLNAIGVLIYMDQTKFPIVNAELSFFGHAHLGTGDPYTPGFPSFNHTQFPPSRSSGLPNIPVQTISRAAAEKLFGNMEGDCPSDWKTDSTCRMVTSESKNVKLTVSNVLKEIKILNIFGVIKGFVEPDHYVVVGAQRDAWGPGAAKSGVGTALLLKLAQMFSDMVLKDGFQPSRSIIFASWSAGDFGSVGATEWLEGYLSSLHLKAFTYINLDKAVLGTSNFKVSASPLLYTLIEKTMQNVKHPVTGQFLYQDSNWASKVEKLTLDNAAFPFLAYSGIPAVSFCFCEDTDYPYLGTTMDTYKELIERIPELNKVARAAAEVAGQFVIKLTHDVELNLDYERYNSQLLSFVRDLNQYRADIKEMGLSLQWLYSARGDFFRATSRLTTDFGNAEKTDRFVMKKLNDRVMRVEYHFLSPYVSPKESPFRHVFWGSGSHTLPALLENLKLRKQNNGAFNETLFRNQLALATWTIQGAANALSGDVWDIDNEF

B1: Din-gp100-huHF (other)
chain: MHHHHHHEFTTASTSQVRQNYHQDSEAAINRQINLELYASYVYLSMSYYFDRDDVALKNFAKYFLHQSHEEREHAEKLMKLQNQRGGRIFLQDIKKPDCDDWESGLNAMECALHLEKNVNQSLLELHKLATDKNDPHLCDFIETHYLNEQVKAIKELGDHVTNLRKVPRNQDWLKMGAPESGLAEYLFDKHTLGDSDNES
modifications: One monomer given; 24 monomers self-assemble. His tag carried RED-tris-NTA dye in MST.
notes: Self-assembled 24-mer; built from the site; also called gp100-huHF, TSA insertion site Din (the middle of D helix)
In turn, B1 displayed a Kd of 29.3 nM.

B2: Ein-gp100-huHF (other)
chain: MHHHHHHEFTTASTSQVRQNYHQDSEAAINRQINLELYASYVYLSMSYYFDRDDVALKNFAKYFLHQSHEEREHAEKLMKLQNQRGGRIFLQDIKKPDCDDWESGLNAMECALHLEKNVNQSLLELHKLATDKNDPHLCDFIETHYLNEQVKAIKELGDHVTNLRKMGAPESGLAEYLFDKHKVPRNQDWLTLGDSDNES
notes: Self-assembled 24-mer; built from the site; also called gp100-huHF, TSA insertion site Ein (the middle of E helix)
Consider B2, for which the Kd is 6.28 nM.

Source of the values: patent US20240150417A1 (CELLEMEDY, published 2024).
